Reference: doi:10.1101/2021.02.05.429362

What was measured:
[1] = molecular target: GFP-USP10(1-28) (UniProt Q14694); experiment: ITC; conditions: 25°C, 150 mM NaCl, 10 mM MgCl2
[2] = molecular target: GFP-Caprin-1(356-386) (UniProt Q14444); experiment: ITC; conditions: 25°C, 150 mM NaCl, 10 mM MgCl2

G3BP1 NTF2-like domain (G3BP1-NTF2)
KD ([1]; pH 5.6): 0.5 μM (0.3 / 0.7) | KD ([1]; pH 7.4): 1.5 ± 0.5 µM | KD ([2]; pH 5.6): 1.4 μM (1.1 / 1.7) | KD ([2]; pH 7.4): 4 ± 2 µM
